Source: publication PMC8639918, “Mechanism of phosphate sensing and signaling revealed by rice SPX1-PHR2 complex structure” (Nature Communications, 2021)
Numbering of substitutions follows the chain as printed. Names and notes keep the numbering of the source. Values joined by “and” are separate entries in the source; they are usually repeats but may differ in a detail not shown here. Equal values may be shown once. One block for each binder: values may come before it.

Legend:
[1] = target: the molecule itself; experiment: SEC-MALS; Superdex 200 Increase 10/300 GL, buffer C (20 mM Tris/HCl pH 8.0, 200 mM NaCl, 1 mM TCEP) without InsP6, 2–3 mg/ml, 4 °C
[2] = target: T1, SPX1^1–259 (C-terminally truncated fragment of rice SPX1) (rice, UniProt Q69XJ0 1-259); experiment: SEC-MALS; Superdex 200 Increase 10/300 GL, buffer C (20 mM Tris/HCl pH 8.0, 200 mM NaCl, 1 mM TCEP) with 1 mM InsP6, 2–3 mg/ml, 4 °C; settings: both partners purified
T1 construct: also called OsSPX1; not shown: His10, N-terminal, cleaved; MsyB, N-terminal, cleaved
T1 sequence (looked up): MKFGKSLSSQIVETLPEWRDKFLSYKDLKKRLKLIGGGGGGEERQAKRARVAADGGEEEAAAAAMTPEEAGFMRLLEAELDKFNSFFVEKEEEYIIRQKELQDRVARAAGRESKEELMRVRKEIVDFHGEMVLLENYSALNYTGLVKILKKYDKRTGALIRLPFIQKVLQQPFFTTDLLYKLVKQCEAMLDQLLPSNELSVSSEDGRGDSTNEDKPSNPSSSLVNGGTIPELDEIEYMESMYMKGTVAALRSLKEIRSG

[3] = target: T1, SPX1^1–259 (C-terminally truncated …); experiment: ITC; PHR2^3M at 120 μM injected into SPX1^1–259 at 10 μM, in presence or absence of 1 mM InsP6; 25 °C; buffer F (20 mM HEPES/NaOH pH 7.5, 200 mM NaCl, 2 mM β-mercaptoethanol); settings: both partners purified
[4] = target: T2, SPX1^1–198 (rice, UniProt Q69XJ0 1-198); experiment: SEC; gel filtration of SPX1^1–198 and PHR2^248–380 and their mutants, buffer C (20 mM Tris/HCl pH 8.0, 200 mM NaCl, 1 mM TCEP) with or without InsP6 as the methods put it; samples incubated at 4 °C for 12 h (Figs. 2c, 5b, Supplementary Fig. 3a–d); settings: both partners purified
T2 construct: SPX1 (OsSPX1), rice, residues 1-198; also called SPX1 (residues 1–198); not shown: His10, N-terminal, cleaved; MsyB, N-terminal, cleaved
T2 sequence (looked up): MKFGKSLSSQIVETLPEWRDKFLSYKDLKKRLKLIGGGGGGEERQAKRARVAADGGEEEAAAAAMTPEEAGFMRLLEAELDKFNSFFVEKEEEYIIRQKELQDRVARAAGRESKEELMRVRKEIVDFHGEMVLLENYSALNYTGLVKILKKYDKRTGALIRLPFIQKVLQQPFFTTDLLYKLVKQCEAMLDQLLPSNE

[5] = target: T3, SPX1^1–198 Y180A (rice, UniProt Q69XJ0 1-198, Y180A); experiment: as above; settings: both partners purified
T3 construct: SPX1 (OsSPX1), rice, residues 1-198; not shown: His10, N-terminal, cleaved; MsyB, N-terminal, cleaved
T3 sequence (looked up): T2 sequence (looked up) with Y180A

[6] = target: T4, SPX1^1–198 E135A (rice, UniProt Q69XJ0 1-198, E135A); experiment: as above; settings: both partners purified
T4 construct: SPX1 (OsSPX1), rice, residues 1-198; not shown: His10, N-terminal, cleaved; MsyB, N-terminal, cleaved
T4 sequence (looked up): T2 sequence (looked up) with E135A

B1: Arabidopsis PHR1^227–358 (MYB and CC domains only) (domain or fragment)
chain: not shown
notes: The methods describe only SPX1 and PHR2 constructs; also called AtPHR1
- stoichiometry N [1]: 2

- stoichiometry N [2]: 1
B2: PHR2^230–426 (MYB and CC domain-containing fragment of rice PHR2) (domain or fragment)
chain: not shown
notes: Alone in solution a mixture of dimer and tetramer; one copy in the complex with SPX1; not shown: His10, N-terminal, cleaved; MsyB, N-terminal, cleaved
- stoichiometry N [1]: 2 and 4

- Kd [3]: ~170 nM
B3: PHR2^(230–426 L348A/L358A/I362A) (domain or fragment)
chain: not shown
notes: also called PHR2^3M; PHR2 monomeric mutant; not shown: His10, N-terminal, cleaved; MsyB, N-terminal, cleaved

- binding result [4]: binds
- binding result [5]: binds
- binding result [6]: binds
B4: PHR2^248–380 (domain or fragment)
chain: not shown
notes: PHR2 (OsPHR2), rice, residues 248-380; also called PHR2 (residues 248–380); not shown: His10, N-terminal, cleaved; MsyB, N-terminal, cleaved

- binding result [4]: binds
B5: PHR2^248–380 E353A (domain or fragment)
chain: not shown
notes: PHR2 (OsPHR2), rice, residues 248-380; not shown: His10, N-terminal, cleaved; MsyB, N-terminal, cleaved

- binding result [4]: binds
B6: PHR2^248–380 E363A (domain or fragment)
chain: not shown
notes: as for B5

- binding result [4]: binds
B7: PHR2^248–380 R248A (domain or fragment)
chain: not shown
notes: PHR2 (OsPHR2), rice, residues 248-380; also called PHR2 R248 mutant; not shown: His10, N-terminal, cleaved; MsyB, N-terminal, cleaved

- binding result [4]: binds
B8: PHR2^248–380 E257A (domain or fragment)
chain: not shown
notes: PHR2 (OsPHR2), rice, residues 248-380; also called PHR2 E257 mutant; not shown: His10, N-terminal, cleaved; MsyB, N-terminal, cleaved
